This is an account of results in article PMC4693281.

To fix the notation:
B1: bovine ZP3 fragment Arg-32 to Glu-178, N-terminal His-tag and S-tag [modified: N-glycosylated Asn-124 and Asn-146; N-glycosylated Asn-124 and Asn-146] [bovine] / bovine ZP4 (Lys-25 to Arg-464) with N-terminal FLAG-tag and … (parent)
chain 1: RFRPSKPPAVMVECQEAQLVVTVDKDLFGTGKLIRPADLTLGPDNCEPLASADTDGVVRFAVGLHECGNILQVTDNALVYSTFLLHNPRPAGNLSILRTNRAEVPIECHYPRQGNVSSWAIQPTWVPFRTTVFSEEKLVFSLRLMEE
chain 2: KVPEYPDELRCGLRSFQFTINPLSQETETPPVLVAWDNHGLPHSLQNDSDCGTWVSEGPGSSLVGEASYSGCYVTEWESYYIMTVGIERAGVSGSGAFIETKLFKCPVNLPDVPNAGLCDSVPVWDRLPCAPSPITQGDCKQLGCCYNSEEVISCYYGNTVTSHCTQDGHFSIAVSRNVTSPPLLLNSVHLAFRNDSECKPVMATHTFVLFRFPFTTCGTTKQITGKQAVYENELVAARDVRTWSRGSITRDSTFRLQVSCSYSASSSALPVNVQVLTLPPPLPETQPGNLTLELKIAKDKRYRSYYTASDYPVVKLLRDPIYVEVSIHQRTDPSLELRLDQCWATPGADALLQPQWPLLVNGCPYTGDNYQTKLIPVWEASDLPFPSHYQRFSISTFSFVDSVAKRALKGPVYLHCSASVCQPAGTPSCVTLCPARRRR

In this assay the parent is B1. Briefly: co-precipitation (TALON resin pull-down of His-tagged ZP3 fragment, anti-FLAG Western blot quantified with NIH ImageJ). The following applies: with bovine ZP4 (Lys-25 to Arg-464) with N-terminal FLAG-tag and S-tag [bovine]; parent: 100; read off a plot.
For the variant chain 1 RFRPSKPPAVMVECQEAQLVVTVDKDLFGTGKLIRPADLTLGPDNCEPLASADTDGVVRFAVGLHECGNILQVTDNALVYSTFLLHNPRPAGNLSILRTNRAEVPIECHYPRQGDVSSWAIQPTWVPFRTTVFSEEKLVFSLRLMEE [chain 1 N115D], the percent of parent was found to be 130%. In the case of chain 1 RFRPSKPPAVMVECQEAQLVVTVDKDLFGTGKLIRPADLTLGPDNCEPLASADTDGVVRFAVGLHECGNILQVTDNALVYSTFLLHNPRPAGDLSILRTNRAEVPIECHYPRQGDVSSWAIQPTWVPFRTTVFSEEKLVFSLRLMEE [chain 1 N93D N115D], the percent of parent worked out at 110%. On to chain 1 RFRPSKPPAVMVECQEAQLVVTVDKDLFGTGKLIRPADLTLGPDNCEPLASADTDGVVRFAVGLHECGNILQVTDNALVYSTFLLHNPRPAGDLSILRTNRAEVPIECHYPRQGNVSSWAIQPTWVPFRTTVFSEEKLVFSLRLMEE [chain 1 N93D], for which the percent of parent is 100%.
